# Experimental data published in patent US20030087317.
# How the values were obtained:
# [1] = system: myelin basic protein
# [2] = system: histone
# human NIM1 kinase-GST (recombinant Nim1-GST, expressed in Sf21 insect cells from pVL1392/GST-NIM1), sequence (chain, as listed by the source): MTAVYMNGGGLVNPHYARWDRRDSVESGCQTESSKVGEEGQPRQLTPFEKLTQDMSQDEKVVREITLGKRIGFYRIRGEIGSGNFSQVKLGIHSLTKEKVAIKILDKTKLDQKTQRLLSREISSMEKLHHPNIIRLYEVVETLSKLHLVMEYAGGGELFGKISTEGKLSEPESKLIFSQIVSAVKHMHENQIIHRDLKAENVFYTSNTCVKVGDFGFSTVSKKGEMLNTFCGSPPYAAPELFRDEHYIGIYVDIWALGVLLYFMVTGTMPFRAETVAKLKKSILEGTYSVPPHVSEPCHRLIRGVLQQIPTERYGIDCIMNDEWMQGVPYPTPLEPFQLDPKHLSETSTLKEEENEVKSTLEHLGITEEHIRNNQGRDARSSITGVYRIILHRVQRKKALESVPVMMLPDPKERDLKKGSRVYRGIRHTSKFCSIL
substance,measurement,setting,value
"human NIM1 kinase-GST (recombinant Nim1-GST, expressed in Sf21 insect cells from pVL1392/GST-NIM1)","phosphorylation of substrate in in vitro kinase assay ([gamma-32P]-ATP, SDS-PAGE, autoradiography)",[1],"phosphorylated its substrates MBP, lane 2, and HIST. 1, lane 4"
same,"phosphorylation of substrate in in vitro kinase assay ([gamma-32P]-ATP, SDS-PAGE, autoradiography)",[2],"phosphorylated its substrates MBP, lane 2, and HIST. 1, lane 4"
